US20230399393A1, “METHODS TO EXTEND HEALTH-SPAN AND TREAT AGE-RELATED DISEASES” (National University of Singapore, priority 2020, published 2023)

Key:
[1] = test system: C57Bl/6J mice; assay: Gastrocnemius and soleus muscle weights; type: in vivo, mouse; conditions: age 110 weeks; vs IgG control
Description: From age 55 weeks (human equivalent of ˜45 years old (i.e. middle age)) to age 110 weeks (human equivalent of ˜75 years old), mice were administered with 40 mg/kg of either X203 or isotype-matched control IgG via intra-peritoneal injection every 3 weeks.
Mice also underwent body-composition assessment via echo MRI both at baseline (age 55 weeks) and at 108-109 weeks. This enabled calculation of the change in body fat mass and lean (muscle) mass in the X203 and IgG control treatment groups. Gastrocnemius and soleus muscles were also harvested from the mice at age 110 weeks and their weights were recorded. Data were analysed by 2-way ANOVA.

[2] = test system: AML12; assay: Senescence reversal experiment, qPCR at day 10; type: cell-based, mouse; conditions: 2 μg/ml for 72 hours after 7 days senescence induction; vs IgG
Description: FIG. 25. (25A) Schematic of senescence reversal experiment for data shown in B-D. Senescent AML12 were generated for 7 days as described above. IgG/X203/X209 (2 μg/ml) was added into the cultures at the end of senescence induction period for 72 hours; cells were harvested at day 10 for RNA extraction and subsequent qPCR experiments. Relative mRNA expression of (25B) Cdkn1a (p21), (25C) Il1β, and (25D) Il11.
Briefly, senescent AML12 were generated for 7 days as described above, but IgG/X203/X209 (2 μg/ml) was added into the cultures at the end of senescence induction period for 72 hours.
Senescent AML12 were generated by treating the cells with a sub-lethal concentration of H2O2 (0.75 mM) for 1 hour, followed by 23 hours recovery per day, for 7 days as described (Tripathi, Yen, and Singh 2020, STAR Protocols 1 (2): 100064). For prevention study, AML12 cells were treated with 2 ug/ml of either IgG or X209 during the recovery period of the senescence induction stage (from day 1 to day 7); cells were harvested for total RNA collection at day 10. For reversal study, senescence was first induced for seven days followed by 2 ug/ml of IgG, X203, or X209 treatment for 3 days; cells were harvested for total RNA collection at day 10.
Total RNA was extracted from AML12 or snap-frozen tissues using Trizol (Invitrogen) and RNeasy Mini Kit (Qiagen). […] using iScript cDNA Synthesis Kit (Biorad). Gene expression analysis was performed on duplicate samples with either TaqMan (Applied Biosystems) for Il11 (Mm00434162) or fast SYBR green (Qiagen) technology using StepOnePlus™ (Applied Biosystem) for Ccl2, Ccl5, Gapdh, Il1β, Il6, Il8, p16, p21, Tnfα, over 40 cycles. Expression data were normalized to GAPDH mRNA expression and fold change was calculated using 2^−ΔΔct method.

[3] = test system: C57Bl/6J mice; assay: Serum IL-6 levels of old mice (ELISA); type: in vivo, mouse; conditions: old (110 week-old) male and female mice; vs IgG isotype control
Description: FIG. 51. A neutralizing IL-11 antibody reduces the levels of IL-6 protein in the serum of old mice. Graphs showing the effects of treatment with anti-IL11 (X203) or IgG isotype control on serum IL-6 levels levels of old (110 week-old) male and female mice. Dotted lines indicate the mean serum IL-6 levels of 12 week-old control male (0.159 μg/ml) and female (0.236 μg/ml) mice. Data were analyzed by 2-way ANOVA.
IL-6 is strongly linked with ageing (Maggio et al. 2006, J Gerontol A Biol Sci Med Sci. 61(6): 575-584; Ershler and Keller 2000, Annual Review of Medicine 51: 245-70).
(§1) Male and female C57Bl/6J mice aged 46 weeks were purchased from the Jackson Laboratory. Mice were randomised on a 1:1 basis to receive either 40 mg/kg of X203 or an isotype control IgG antibody (11E10), every 3 weeks (IP), starting from 55 weeks of age. Mice were sacrificed at 110 weeks of age for blood and tissues collection. 12 weeks old male and female C57Bl/6J mice that were used as control were purchased from Invivos (Singapore).
The levels of IL6 in mouse serum were quantified using Mouse IL-6 Quantikine ELISA Kit (M6000B; R&D Systems).

[4] = test system: C57Bl/6J mice; assay: In vivo administration of anti-IL11 (X203) to old mice, summary of multi-morbidity; set-up: species or system mouse; conditions: vs IgG
From the text: Furthermore, the data disclose that: • Administration of MEK1/2 inhibitor U0126 to cells stimulated with IL11 prevents ERK-mediated inactivation of LKB1/AMPK that stops IL11-induced mTORC1/P70S6K activation. • Administration of anti-IL11 (X203) vs IgG control to mice aged 55-110 weeks old results in lesser ERK activation, restored LKB1/AMPK activity and reduced mTORC1 activity and senescence markers (p16/p21). This is seen across tissues. • Mice deleted for IL11RA1 at 110 weeks old mirror the effects seen with X203 administration and have a signaling profile more similar to young mice, across tissues. • Administration of X203 vs IgG to old mice improves multi-morbidity with better serum levels of fats, glucose, lesser tissue fibrosis, better kidney function, reduced tissue inflammation, reduced obesity and lesser frailty. • Administration of X203 vs IgG to old mice improves markers of inflammation (CCL2, CCL5, TNFa, IL1b, IL11 and IL6)—an altered intercellular communication Hallmark of ageing—across tissues, including liver, kidney and skeletal muscle.
as §1, with “12 weeks old male and female C57Bl/6J mice that were used as control were purchased from Invivos (Singapore).” left out

B1: X203: mouse anti-mouse IL-11 IgG antagonist antibody; VH SEQ ID NO:22, VL SEQ ID NO:23 (antibody, V domains shown)
VH: EVQLQQSGPELVKPGASVKIPCKASGYTFTDYNMDWVKQSHGKSLEWIGDINPHNGGPIYNQKFTGKATLTVDKSSSTAYMELRSLTSEDTAVYYCARGELGHWYFDVWGTGTTVTVSS
VL: DIVLTQSPASLAVSLGQRATISCRASKSVSTSGYSYIHWYQQKPGQPPKLLIYLASNLDSGVPARFSGSGSGTDFTLNIHPVEEEDAATYYCQHSRDLPPTFGGGTKLEIK
[1]
  weight of gastrocnemius muscle as a proportion of body weight: greater
  weight of soleus muscle as a proportion of body weight: greater
[2]
  inflammation marker IL-1 b: significantly reduce
  inflammation marker IL-11: significantly reduce
  senescence marker p21: significantly reduce
[3]
  levels of IL-6 protein in the serum: significantly reduces
[4]
  multi-morbidity (serum levels of fats, glucose, tissue fibrosis, kidney function, tissue inflammation, obesity, frailty): improves
